Laboratory results reported in the supplement of paper PMC9233669.
Fewer inactive variants are shown than the library holds.

How the values were obtained:
biotinyl-Phe-oxazolone = assay: self-aminoacylation, catalytic enhancement (BFO) (fold over background); higher = more active; k-Seq, kA / k0A0; sequences stand for … in GGGAAUGGAUCCACAUCUACGAAUUC…UUCACUGCAGACUUGACGAAGCUG
How it was run: (§1)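 Working in 50 μL HEPES/NaCl/KCl/MgCl2/CaCl2 buffer with 5% acetonitrile at pH 6.9–7.0, mutagenized RNA pools (0.43 μM; 21-nt variable region) were reacted with 2–1250 μM of each biotinyl-aminoacyl-oxazolone for 90 minutes at room temperature. Streptavidin capture followed, with quantification by triplicate qPCR and Illumina sequencing. Catalytic enhancement is reported as median kA over the uncatalyzed rate, the low-activity peak of a bimodal Gaussian fit to the data.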

biotinyl-Ile-oxazolone = assay: self-aminoacylation, catalytic enhancement (BIO) (fold over background); higher = more active; k-Seq, kA / k0A0; sequences stand for … in GGGAAUGGAUCCACAUCUACGAAUUC…UUCACUGCAGACUUGACGAAGCUG
How it was run: as §1

biotinyl-Met-oxazolone = assay: self-aminoacylation, catalytic enhancement (BMO) (fold over background); higher = more active; k-Seq, kA / k0A0; sequences stand for … in GGGAAUGGAUCCACAUCUACGAAUUC…UUCACUGCAGACUUGACGAAGCUG
How it was run: as §1

biotinyl-Val-oxazolone = assay: self-aminoacylation, catalytic enhancement (BVO) (fold over background); higher = more active; k-Seq, kA / k0A0; sequences stand for … in GGGAAUGGAUCCACAUCUACGAAUUC…UUCACUGCAGACUUGACGAAGCUG
How it was run: as §1

biotinyl-Leu-oxazolone = assay: self-aminoacylation, catalytic enhancement (BLO) (fold over background); higher = more active; k-Seq, kA / k0A0; sequences stand for … in GGGAAUGGAUCCACAUCUACGAAUUC…UUCACUGCAGACUUGACGAAGCUG
How it was run: as §1

biotinyl-Trp-oxazolone = assay: self-aminoacylation, catalytic enhancement (BWO) (fold over background); higher = more active; k-Seq, kA / k0A0; sequences stand for … in GGGAAUGGAUCCACAUCUACGAAUUC…UUCACUGCAGACUUGACGAAGCUG
How it was run: as §1

Sequence	self-aminoacylation (biotinyl-Phe-oxazolone)	self-aminoacylation (biotinyl-Ile-oxazolone)	self-aminoacylation (biotinyl-Met-oxazolone)	self-aminoacylation (biotinyl-Val-oxazolone)	self-aminoacylation (biotinyl-Leu-oxazolone)	self-aminoacylation (biotinyl-Trp-oxazolone)
CUACUUCAAACAAUCGAUCAG [Fam1A.1 aminoacylation ribozyme variant]	1.15	0.554	0.497	0.654	0.659	0.617
CUACUUCAAACAAUCGCGCUG [Fam1A.1 aminoacylation ribozyme variant]	1.59	1.47	1.52	1.35	1.88	1.1
CUACUUCAAACAAUCGCUAUG [Fam1A.1 aminoacylation ribozyme variant]	1.32	0.99	0.958	0.973	0.878	0.755
CUACUUCAAACAAUCGCUCGG [Fam1A.1 aminoacylation ribozyme variant]	0.822	1.02	0.763	0.954	0.768	0.747
CUACUUCAAACAAUCGGACUC [Fam1A.1 aminoacylation ribozyme variant]	5.7	0.675	0.563	0.7	0.624	2.57
CUACUUCAAACAAUCGGCUUG [Fam1A.1 aminoacylation ribozyme variant]	2.59	1.27	1.1	1.35	1.21	2.53
CUACUUCAAACAAUCGGUCAU [Fam1A.1 aminoacylation ribozyme variant]	4.39	0.892	0.666	1.01	0.892	1.88
CUACUUCAAACAAUCGGUCGA [Fam1A.1 aminoacylation ribozyme variant]	14.9	0.884	0.807	0.974	0.992	6.82
CUACUUCAAACAAUCGUUCUA [Fam1A.1 aminoacylation ribozyme variant]	1.08	0.582	0.545	0.801	0.559	0.631
CUACUUCAAACAAUUGGUGUG [Fam1A.1 aminoacylation ribozyme variant]	1.52	1.19	1.24	1.12	1.62	1.23
CUACUUCAAACACUCCGUCUG [Fam1A.1 aminoacylation ribozyme variant]	0.78	0.772	0.845	0.869	0.727	0.771
CUACUUCAAACAGUCGGUAUG [Fam1A.1 aminoacylation ribozyme variant]	0.447	0.6	0.587	0.552	0.532	0.554
CUACUUCAAACAUUCAGUCUG [Fam1A.1 aminoacylation ribozyme variant]	0.971	1.04	0.734	0.812	0.741	0.602
CUACUUCAAACAUUCGGUAUG [Fam1A.1 aminoacylation ribozyme variant]	0.64	0.968	0.993	1.12	1.05	0.924
CUACUUCAAACAUUCGGUGUG [Fam1A.1 aminoacylation ribozyme variant]	8.08	1.4	1.82	1.51	1.73	1.39
CUACUUCAAACAUUGGGUCUG [Fam1A.1 aminoacylation ribozyme variant]	0.555	0.914	0.944	0.977	0.868	0.716
CUACUUCAAACAUUUGGUCUG [Fam1A.1 aminoacylation ribozyme variant]	0.677	1.13	0.873	0.984	0.802	0.678
CUACUUCAAACCAUCGGCCUG [Fam1A.1 aminoacylation ribozyme variant]	1.51	1.82	1.63	1.94	1.45	1.71
CUACUUCAAACCAUCGGUCAG [Fam1A.1 aminoacylation ribozyme variant]	0.853	0.67	0.609	0.771	0.488	0.762
CUACUUCAAACCAUCGGUGUG [Fam1A.1 aminoacylation ribozyme variant]	1.24	1.08	1.11	1.1	1.52	0.938
CUACUUCAAACGAGCGGUCUG [Fam1A.1 aminoacylation ribozyme variant]	0.761	0.8	0.943	1.02	0.689	0.477
CUACUUCAAACGAUCGGCCUG [Fam1A.1 aminoacylation ribozyme variant]	1.59	1.55	1.33	1.66	1.96	2.08
CUACUUCAAACUAUCGAUCUG [Fam1A.1 aminoacylation ribozyme variant]	0.945	0.736	0.57	0.728	0.596	0.369
CUACUUCAAACUAUCGCUCUG [Fam1A.1 aminoacylation ribozyme variant]	0.781	0.732	0.609	0.786	0.678	0.664
CUACUUCAAACUAUCGGUUUG [Fam1A.1 aminoacylation ribozyme variant]	0.88	0.944	0.748	0.961	0.829	0.697
CUACUUCAAACUAUGGGUCUG [Fam1A.1 aminoacylation ribozyme variant]	0.588	0.917	0.789	0.813	0.922	0.592
